Measurements reported in patent US20130210709A1 (ANCHOR THERAPEUTICS, published 2013).
Ends that are not written are not given here. * marks the point of attachment. Palmitoyl = CCCCCCCCCCCCCCCC(=O)*

Biological target: CXCR4 receptor (human, UniProt P61073 1-352)
Assay: cell-based or functional assay

Sequence of CXCR4 receptor (P61073 whole entry): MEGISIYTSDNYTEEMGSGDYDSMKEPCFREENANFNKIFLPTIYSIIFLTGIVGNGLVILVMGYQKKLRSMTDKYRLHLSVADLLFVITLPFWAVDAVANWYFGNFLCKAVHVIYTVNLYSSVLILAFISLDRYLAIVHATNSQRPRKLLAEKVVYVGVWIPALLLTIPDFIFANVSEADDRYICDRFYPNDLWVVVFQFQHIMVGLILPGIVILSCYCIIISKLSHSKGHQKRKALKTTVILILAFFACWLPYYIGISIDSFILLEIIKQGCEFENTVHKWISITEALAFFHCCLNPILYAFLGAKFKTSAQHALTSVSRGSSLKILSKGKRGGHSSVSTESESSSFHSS

B1: Compound No. 44 (Pal-KKLRSMTDKYRL-amide) (peptide)
peptide: Palmitoyl-KKLRSMTDKYRL-NH2
SMILES: CCCCCCCCCCCCCCCC(=O)N[C@@H](CCCCN)C(=O)N[C@@H](CCCCN)C(=O)N[C@@H](CC(C)C)C(=O)N[C@@H](CCCNC(=N)N)C(=O)N[C@@H](CO)C(=O)N[C@@H](CCSC)C(=O)N[C@H](C(=O)N[C@@H](CC(=O)O)C(=O)N[C@@H](CCCCN)C(=O)N[C@@H](Cc1ccc(O)cc1)C(=O)N[C@@H](CCCNC(=N)N)C(=O)N[C@@H](CC(C)C)C(N)=O)[C@@H](C)O
Q: What does the source list for B1?
A: AUC (% of), CHTX, SUP B-15, 1.0 uM: 25.9%; Max (% of), CHTX, SUP B-15, 1.0 uM: 31.5%; Peak Ratio, CHTX, SUP B-15, 1.0 uM: 0.2

B2: CXCR4 i1 loop compound 45 (peptide)
peptide: Palmitoyl-KKLRSMTDKYR-NH2
SMILES: CCCCCCCCCCCCCCCC(=O)N[C@@H](CCCCN)C(=O)N[C@@H](CCCCN)C(=O)N[C@@H](CC(C)C)C(=O)N[C@@H](CCCNC(=N)N)C(=O)N[C@@H](CO)C(=O)N[C@@H](CCSC)C(=O)N[C@H](C(=O)N[C@@H](CC(=O)O)C(=O)N[C@@H](CCCCN)C(=O)N[C@@H](Cc1ccc(O)cc1)C(=O)N[C@@H](CCCNC(=N)N)C(N)=O)[C@@H](C)O
Q: Which results are given for B2?
A: AUC (% of), CHTX, SUP B-15, 1.0 uM: 178%; Max (% of), CHTX, SUP B-15, 1.0 uM: 194%; Peak Ratio, CHTX, SUP B-15, 1.0 uM: 1

B3: CXCR4 i1 loop compound 49 (peptide)
peptide: Palmitoyl-MGYQKKLRSMTDKYRI-NH2
SMILES: CCCCCCCCCCCCCCCC(=O)N[C@@H](CCSC)C(=O)NCC(=O)N[C@@H](Cc1ccc(O)cc1)C(=O)N[C@@H](CCC(N)=O)C(=O)N[C@@H](CCCCN)C(=O)N[C@@H](CCCCN)C(=O)N[C@@H](CC(C)C)C(=O)N[C@@H](CCCNC(=N)N)C(=O)N[C@@H](CO)C(=O)N[C@@H](CCSC)C(=O)N[C@H](C(=O)N[C@@H](CC(=O)O)C(=O)N[C@@H](CCCCN)C(=O)N[C@@H](Cc1ccc(O)cc1)C(=O)N[C@@H](CCCNC(=N)N)C(=O)N[C@H](C(N)=O)[C@@H](C)CC)[C@@H](C)O
Q: With B3 as the binder, how does the “AUC (% of), CHTX, CEM, 1.0 uM” value read?
A: Its value is 50.9%.

Q: What about the “Max (% of), CHTX, CEM, 1.0 uM” value of the same binder?
A: Its value is 62.7%.

Q: What about the “Peak Ratio, CHTX, CEM, 1.0 uM” value of the same binder?
A: The value was 0.2.

B4: CXCR4 i1 loop compound 54 (peptide)
peptide: MGYQKKLRSMTDKYRLHL-NH2
modifications: not fully specified (N-terminus); also: N-terminal T-L: Myr, dual lipid backbone
Q: For B4, which “Peak Ratio, CHTX, CEM, 1.0 uM” value is on record?
A: The value was 1.

B5: CXCR-4 receptor Compound No. 43 (peptide)
peptide: Palmitoyl-KKLRSMTDKYRLH-NH2
SMILES: CCCCCCCCCCCCCCCC(=O)N[C@@H](CCCCN)C(=O)N[C@@H](CCCCN)C(=O)N[C@@H](CC(C)C)C(=O)N[C@@H](CCCNC(=N)N)C(=O)N[C@@H](CO)C(=O)N[C@@H](CCSC)C(=O)N[C@H](C(=O)N[C@@H](CC(=O)O)C(=O)N[C@@H](CCCCN)C(=O)N[C@@H](Cc1ccc(O)cc1)C(=O)N[C@@H](CCCNC(=N)N)C(=O)N[C@@H](CC(C)C)C(=O)N[C@@H](Cc1c[nH]cn1)C(N)=O)[C@@H](C)O
Q: What does the source list for B5?
A: AUC (% of), CHTX, SUP B-15, 1.0 uM: 70.8%; Max (% of), CHTX, SUP B-15, 1.0 uM: 55.8%; Peak Ratio, CHTX, CEM, 0.01 uM: 1; Peak Ratio, CHTX, CEM, 0.03 uM: 1; Peak Ratio, CHTX, CEM, 0.1 uM: 0.2; Peak Ratio, CHTX, CEM, 0.3 uM: 0.04; Peak Ratio, CHTX, CEM, 3.0 uM: 0.2; Peak Ratio, CHTX, SUP B-15, 1.0 uM: 0.04

B6: CXCR4 i1 loop compound 46 (peptide)
peptide: Palmitoyl-KKLRSMTDKY-NH2
SMILES: CCCCCCCCCCCCCCCC(=O)N[C@@H](CCCCN)C(=O)N[C@@H](CCCCN)C(=O)N[C@@H](CC(C)C)C(=O)N[C@@H](CCCNC(=N)N)C(=O)N[C@@H](CO)C(=O)N[C@@H](CCSC)C(=O)N[C@H](C(=O)N[C@@H](CC(=O)O)C(=O)N[C@@H](CCCCN)C(=O)N[C@@H](Cc1ccc(O)cc1)C(N)=O)[C@@H](C)O
Q: Which “AUC (% of), CHTX, SUP B-15, 1.0 uM” value does the source give for B6 here?
A: Its value is 87.2%.

Q: What about the “Max (% of), CHTX, SUP B-15, 1.0 uM” value of the same binder?
A: Its value is 82.9%.

Q: What about the “Peak Ratio, CHTX, SUP B-15, 1.0 uM” value of the same binder?
A: The value was 0.2.

Q: With MGYQKKLRSMTDKYRI-NH2 (not fully specified (N-terminus); also: further groups not given here) [CXCR4 i1 loop compound 48] as the binder, how does the “AUC (% of), CHTX, CEM, 1.0 uM” value read?
A: Its value is 53%.

Q: And the “Max (% of), CHTX, CEM, 1.0 uM” value?
A: Its value is 53.5%.

Q: What about the “Peak Ratio, CHTX, CEM, 1.0 uM” value of the same binder?
A: Its value is 5.
